This note sets out measurements from patent publication US20030091594A1 (University of Pennsylvania, published 2003).

The target in assay [1] is T1, HIV-1/IIIB (HXBc2) gp120 pre-incubated with soluble CD4 (HIV-1).
T1 construct: also called HXB/CD4; HIXB/CD4
Briefly: 125I-gp120 binding to transfected 293T cells, with sCD4.

Assay [2] concerns the target T1, HIV-1/IIIB (HXBc2) gp120 pre-incubated …. The assay is described as follows: cell-surface binding of 125I-gp120 with sCD4 to 293T cells transfected with CCR5.

B1: human CXCR4 (receptor)
chain: MEGISIYTSDNYTEEMGSGDYDSMKEPCFREENANFNKIFLPTIYSIIFLTGIVGNGLVILVMGYQKKLRSMTDKYRLHLSVADLLFVITLPFWAVDAVANWYFGNFLCKAVHVIYTVNLYSSVLILAFISLDRYLAIVHATNSQRPRKLLAEKVVYVGVWIPALLLTIPDFIFANVSEADDRYICDRFYPNDLWVVVFQFQHIMVGLILPGIVILSCYCIIISKLSHSKGHQKRKALKTTVILILAFFACWLPYYIGISIDSFILLEIIKQGCEFENTVHKWISITEALAFFHCCLNPILYAFLGAKFKTSAQHALTSVSRGSSLKILSKGKRGGHSSVSTESESSSFHSS
notes: whole, on cells
Turning to B1, the binding result in assay [1] is recorded as “binds”.

B2: human CCR5 (receptor)
chain: not shown
notes: whole, on cells
With B2, in assay [2], the binding result is “no binding”.
